In the supplement of paper PMC10567573:

B1: CASP6 (parent)
chain: TCADRDNLTRRFSDLGFEVKCFND
B2: FCHO1 (parent)
chain: FSDPSQSDPETKDFWLNMAALTEA

Variants of: B1
Test: protein stability index of a GFP-peptide fusion (GPS, HEK-293T) (PSI 1-6); higher = more stable
Details: c terminus: a fixed tail appended
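Note: lentivirally expressed fusions sorted by FACS into six bins by GFP to DsRed ratio, PSI derived from sequencing read proportions per bin multiplied by bin number.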

Protein stability index of substitutions, site by site:
K20: P 3.58 | M 2.57 | N 3.75 | W 2.56 | D 4.14 | A 3.76 | G 3.54 | Y 2.2 | L 3 | C 2.75 | F 2.87 | T 3.15 | Q 3.37 | E 3.6 | R 3.32 | S 3.17 | H 2.89 | V 2.83 | I 2.42
F17: K 3.37 | G 4.34 | A 3.7 | N 4.26 | T 3.75 | L 4.16 | I 3.54 | W 2.44 | S 4.17 | H 3.47 | D 4.8 | M 3.58 | C 3.36 | P 4.04 | Q 4.29 | R 2.95 | E 4.52 | Y 2.62 | V 3.61
D24: F 2.11 | I 1.87 | N 2.97 | M 2.6 | K 3.02 | C 2.41 | E 2.94 | T 2.54 | Q 3.24 | S 2.57 | P 3.24 | Y 2.04 | V 1.23 | G 2.66 | A 2.21 | H 2.95 | L 2.17 | R 2.67 | W 2.14
D14: S 2.46 | M 1.97 | N 3.8 | A 3.23 | V 2.43 | T 2.27 | W 1.97 | G 3.46 | L 2.5 | K 3.36 | Y 2.46 | P 2.47 | R 2.45 | C 2.91 | E 3.34 | Q 2.93 | I 2.79 | H 2.4 | F 2.07
V19: N 3.9 | D 4.93 | L 2.57 | E 4.31 | F 2.69 | A 3.62 | W 2.76 | P 4.38 | I 3.44 | R 3.48 | C 1.95 | Q 3.85 | K 3.94 | T 4.24 | S 3.8 | Y 3.5 | M 3.49 | H 3.36 | G 4.08
E18: I 2.65 | Y 2.29 | W 2.55 | M 2.22 | K 3.3 | C 2.76 | F 1.78 | A 3.25 | Q 3.1 | H 2.48 | T 3.05 | R 3.14 | D 3.86 | N 3.44 | S 2.89 | P 3.49 | V 2.82 | G 2.87
G16: K 2.68 | E 3.83 | L 1.89 | Y 2.27 | V 1.92 | F 2.03 | C 3.18 | R 3.13 | A 2.99 | I 1.92 | N 3.61 | W 1.93 | M 2.14 | H 2.84 | T 3.04 | Q 3.31 | S 3.26 | P 3.54 | D 3.33
N23: M 2.98 | H 2.71 | S 3.66 | Q 3.12 | I 2.49 | Y 2.34 | R 3.89 | G 3.23 | T 3.28 | C 1.8 | D 3.41 | E 4.66 | P 3.61 | L 3.8 | A 3.52 | W 1.41 | K 3.41 | V 2.81 | F 2.51
F22: V 3.93 | E 4.46 | C 3.83 | Q 4.15 | D 4.95 | I 3.9 | T 4.73 | L 3.89 | Y 3.98 | R 3.73 | N 4.58 | S 3.84 | G 3.37 | A 4.54 | H 3.86 | M 3.96 | P 4.32 | K 4.72 | W 3.28
L15: V 3.15 | C 2.58 | F 3.07 | R 3.27 | D 3.92 | K 4.11 | H 3.65 | E 4.57 | N 3.94 | P 4.59 | Q 3.43 | T 4.13 | A 3.16 | M 3.85 | S 4.02 | Y 3.02 | I 2.91 | W 2.75 | G 3.69
C21: H 3.72 | Y 2.97 | L 2.85 | E 4.3 | A 3.53 | P 3.17 | I 2.52 | V 2.67 | G 3.5 | F 2.16 | Q 4.05 | R 3.72 | W 2.63 | M 3.2 | T 3.98 | K 4.2 | S 4.01 | D 4.17 | N 3.82

Variants of: B2
Test: as above
Details: c terminus: a fixed tail appended

Protein stability index: each site, then its substitutions
M18: N 3.55 | R 3.11 | F 2.78 | L 2.57 | W 3.18
D3: G 1.74 | A 1.45 | H 1.69 | P 2.4 | M 1.96 | F 2.1
A20: M 2.85 | L 2.31 | N 2.86 | K 2.63 | V 2.19 | E 3.61 | Y 2.44
Q6: Y 1.81 | H 2.59 | F 2.65 | E 3.35 | T 2.68
W15: L 4.59 | I 4.43 | R 4.68
K12: T 3.15 | P 3.1 | C 3.04 | W 2.52 | H 3.2
P4: I 3.33 | K 2.04 | H 2.16 | C 1.99 | F 2.16 | N 2.04 | M 2.21 | S 2.26
T22: W 3.27 | V 3.44 | P 2.34 | Y 2.82 | E 3.66 | S 2.34 | L 2.82 | N 2.93 | R 2.46 | G 2.53 | C 3.09 | D 3.04 | M 3.02
S2: Y 3.28 | W 2.93 | E 4.62 | R 3.79 | T 2.11 | D 4.53 | V 1.93 | N 1.53
D8: G 2.75 | A 2.62
E10: Q 2.54 | W 1.83 | D 3 | T 2.12 | S 2.2
L16: Q 3.59 | K 2.36 | I 2.32 | F 2.41 | S 2.32
S5: K 2.94 | I 2.74 | G 2.66 | H 2.87 | L 2.84 | P 2.94 | Y 2.45
P9: F 2.76 | K 3.05 | D 3.7
S7: E 3.69 | Y 2.69 | L 2.65
A24: Q 3.27 | V 1.82 | E 3.3
E23: T 2.79 | A 2.15 | M 2.08 | P 2.33
L21: T 2.75 | P 2.32 | H 2.55
N17: C 2.41 | A 2.56 | K 2.91 | T 3.03 | F 1.82 | Y 2.8
F14: I 3.61 | R 4.62 | Q 4.75 | C 4.11 | S 4.78 | E 4.99 | H 4.51 | D 4.88
D13: P 2.37 | S 1.47 | R 1.97 | M 1.43 | L 1.82 | A 2.09 | V 1.65
T11: A 3.11
A19: S 2.29 | N 2.41 | E 2.74
F1: Y 3.26 | E 4.97 | A 4.73 | K 4.42 | V 4.86 | H 4.7
